Laboratory results reported in patent US20200216522A1 (DENALI THERAPEUTICS, published 2020).
Changes are numbered by the printed parent chain.

B1: Clone with H1_2-1 (antibody, V domains shown)
VH: EVQLLESGGGLVQPGGSLRLSCAASGFTFSSVGTSWVRQAPGKGLEWVASISGDGGSYIHYADSVKGRFTISRDNSKNTLYLQMNSLRAEDTAVYYCARLPYWGQGTLVTVSS
VL: DIVMTQSPDSLAVSLGERATINCKSSQSLLNSGNQKNYLTWYQQKPGQPPKLLIYWASTRESGVPDRFSGSGSGTDFTLTISSLQAEDVAVYYCQQYNSYPLTFGQGTKVEIKR
notes: based on hu1C7.v2
B2: Clone with H1_2-2 (antibody, V domains shown)
VH: B1 VH with S31M
VL: B1 VL
notes: based on hu1C7.v2
B3: Clone with H1_2-3 (antibody, V domains shown)
VH: B1 VH with S31Q
VL: B1 VL
notes: based on hu1C7.v2
B4: Clone with H1_2-4 (antibody, V domains shown)
VH: B1 VH with S31L
VL: B1 VL
notes: based on hu1C7.v2
B5: Clone with H1_2-5 (antibody, V domains shown)
VH: B1 VH with S31K
VL: B1 VL
notes: based on hu1C7.v2
B6: Clone with H1_4-1 (antibody, V domains shown)
VH: B1 VH with S31G, V32P, T34M
VL: B1 VL
notes: based on hu1C7.v2
B7: Clone with H1_4-2 (antibody, V domains shown)
VH: B1 VH with T28Q, S31G, V32P, T34M
VL: B1 VL
notes: based on hu1C7.v2
B8: Clone with H1_4-3 (antibody, V domains shown)
VH: B1 VH with T28M, S31G, V32P, T34M
VL: B1 VL
notes: based on hu1C7.v2
B9: Clone with H1_4-4 (antibody, V domains shown)
VH: B1 VH with T28R, V32P, T34M
VL: B1 VL
notes: based on hu1C7.v2
B10: Clone with H1_4-5 (antibody, V domains shown)
VH: B1 VH with T28R, S31G, V32Y, T34M
VL: B1 VL
notes: based on hu1C7.v2
B11: Clone with H2_1 (antibody, V domains shown)
VH: B1 VH with V32Y, T34M, D54E
VL: B1 VL
notes: based on hu1C7.v2
B12: Clone with H2_2 (antibody, V domains shown)
VH: B1 VH with V32Y, T34M, D54T
VL: B1 VL
notes: based on hu1C7.v2
B13: Clone with H2_3 (antibody, V domains shown)
VH: B1 VH with V32Y, T34M, D54S
VL: B1 VL
notes: based on hu1C7.v2
B14: Clone with H2_4 (antibody, V domains shown)
VH: B1 VH with V32Y, T34M, G55A
VL: B1 VL
notes: based on hu1C7.v2
B15: Clone with H2_5 (antibody, V domains shown)
VH: B1 VH with V32Y, T34M, D63S
VL: B1 VL
notes: based on hu1C7.v2
B16: Clone with H2_6 (antibody, V domains shown)
VH: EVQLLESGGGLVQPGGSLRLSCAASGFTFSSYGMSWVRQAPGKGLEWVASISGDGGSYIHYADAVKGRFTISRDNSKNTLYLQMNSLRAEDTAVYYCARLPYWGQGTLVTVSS
VL: B1 VL
notes: based on hu1C7.v2
B17: Clone with L1_4 (antibody, V domains shown)
VH: B1 VH with V32Y, T34M
VL: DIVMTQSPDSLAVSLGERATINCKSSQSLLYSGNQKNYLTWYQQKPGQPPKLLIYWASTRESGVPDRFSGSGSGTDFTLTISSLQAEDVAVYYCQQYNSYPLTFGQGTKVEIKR
notes: based on hu1C7.v2
B18: Clone with L1_5 (antibody, V domains shown)
VH: B1 VH with V32Y, T34M
VL: B1 VL with N31S
notes: based on hu1C7.v2
B19: Clone with L1_6 (antibody, V domains shown)
VH: B1 VH with V32Y, T34M
VL: B1 VL with N31Q
notes: based on hu1C7.v2
B20: Clone with L1_7 (antibody, V domains shown)
VH: B1 VH with V32Y, T34M
VL: B1 VL with S32A
notes: based on hu1C7.v2
B21: Clone with L3_5 (antibody, V domains shown)
VH: B1 VH with V32Y, T34M
VL: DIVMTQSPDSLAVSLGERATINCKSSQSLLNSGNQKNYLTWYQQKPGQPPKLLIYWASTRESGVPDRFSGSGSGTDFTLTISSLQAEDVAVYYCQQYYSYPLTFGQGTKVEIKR
notes: based on hu1C7.v2
B22: Clone with L3_6 (antibody, V domains shown)
VH: B1 VH with V32Y, T34M
VL: B1 VL with N98S
notes: based on hu1C7.v2
B23: Clone with L3_7 (antibody, V domains shown)
VH: B1 VH with V32Y, T34M
VL: B1 VL with S99A
notes: based on hu1C7.v2
B24: Clone with L1_3, L3, and H1_HCv2 (antibody, V domains shown)
VH: B1 VH with S31Q, T34M
VL: DIVMTQSPDSLAVSLGERATINCKSSQSLHRSGTQKDYLVWYQQKPGQPPKLLIYWASTRESGVPDRFSGSGSGTDFTLTISSLQAEDVAVYYCQQYNSYPLTFGQGTKVEIK
B25: Clone with L1_3-1 (antibody, V domains shown)
VH: B1 VH with V32Y, T34M
VL: B24 VL with H30V
notes: based on hu1C7.v2
B26: Clone with L1_3-2 (antibody, V domains shown)
VH: B1 VH with V32Y, T34M
VL: B24 VL with H30L
notes: based on hu1C7.v2
B27: Clone with L1_3-3 (antibody, V domains shown)
VH: B1 VH with V32Y, T34M
VL: B24 VL with R31Y
notes: based on hu1C7.v2
B28: Clone with L1_3-4 (antibody, V domains shown)
VH: B1 VH with V32Y, T34M
VL: B24 VL with R31N
notes: based on hu1C7.v2
B29: Clone with L1_3-5 (antibody, V domains shown)
VH: B1 VH with V32Y, T34M
VL: B24 VL with R31M
notes: based on hu1C7.v2
B30: Clone with L1_3-6 (antibody, V domains shown)
VH: B1 VH with V32Y, T34M
VL: B24 VL with R31Q
notes: based on hu1C7.v2
B31: Clone with L1_3-7 (antibody, V domains shown)
VH: B1 VH with V32Y, T34M
VL: B24 VL with R31K
notes: based on hu1C7.v2
B32: Clone with L1_3-8 (antibody, V domains shown)
VH: B1 VH with V32Y, T34M
VL: B24 VL with R31L
notes: based on hu1C7.v2
B33: Clone with L1_3-9 (antibody, V domains shown)
VH: B1 VH with V32Y, T34M
VL: B24 VL with T34N
notes: based on hu1C7.v2
B34: Clone with L1_3-10 (antibody, V domains shown)
VH: B1 VH with V32Y, T34M
VL: B24 VL with D37N
notes: based on hu1C7.v2
B35: Clone with L1_3-11 (antibody, V domains shown)
VH: B1 VH with V32Y, T34M
VL: B24 VL with V40A
notes: based on hu1C7.v2

Molecular target: T1, full-length human Tau (Tau441; 2N4R), recombinant (human, UniProt P10636 1-758)
T1 construct: made in E. coli, His6-Smt3 tag removed; biotinylated through amines for Octet and phage work; also called r-Tau; recombinant Tau
Experiment: SPR Biacore
Description: IgG was purified with protein A affinity chromatography. The affinity of each hulC7 IgG variant for r-Tau was determined by surface plasmon resonance using a Biacore™ T200 instrument. Biacore™ Series S CM5 sensor chips were immobilized with monoclonal mouse anti-human IgG (Fc) antibody (Human antibody capture kit from GE Healthcare). Serial 3-fold dilutions of each hulC7 variant were injected at a flow rate of […]. Each sample was analyzed with 3-minute association and 10-minute dissociation. After each injection, the chip was regenerated using 3 M MgCl₂. Binding response was corrected by subtracting the RU from a flow cell capturing an irrelevant IgG at similar density. A 1:1 Languir model of simultaneous fitting of kₒₙ and koff was used for kinetics analysis.
A further round of affinity maturation was performed by mutating certain amino acids in selected CDR-H1, CDR-L1, and CDR-L3 sequences from Table 9A, as well as the sequence of CDR-H2 (SEQ ID NO:23) of hulC7.v2. Sequence changes were identified in each CDR (Table 9B). Binding affinities were evaluated using Biacore™ (Table 10B).

T1 sequence (P10636 other isoform, or with tags, fused parts or gaps limits assumed): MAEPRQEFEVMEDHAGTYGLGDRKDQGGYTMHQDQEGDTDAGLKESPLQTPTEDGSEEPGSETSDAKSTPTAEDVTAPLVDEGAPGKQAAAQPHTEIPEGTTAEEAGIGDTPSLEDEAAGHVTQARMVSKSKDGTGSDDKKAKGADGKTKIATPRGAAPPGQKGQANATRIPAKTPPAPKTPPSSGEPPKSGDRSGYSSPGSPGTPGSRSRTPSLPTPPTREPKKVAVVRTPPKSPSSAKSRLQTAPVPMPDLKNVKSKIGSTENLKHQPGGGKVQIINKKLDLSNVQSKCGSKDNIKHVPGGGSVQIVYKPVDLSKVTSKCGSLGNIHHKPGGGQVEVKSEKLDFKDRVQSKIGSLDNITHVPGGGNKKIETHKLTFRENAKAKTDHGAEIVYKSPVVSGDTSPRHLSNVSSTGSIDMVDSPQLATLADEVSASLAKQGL

Row | Binder | Kd | koff | kon
1 | B1 | 1.3 nM | 0.000183 s⁻¹ | 141000 M⁻¹ s⁻¹
2 | B2 | 0.759 nM | 9.71e-05 s⁻¹ | 128000 M⁻¹ s⁻¹
3 | B3 | 0.477 nM | 9.39e-05 s⁻¹ | 197000 M⁻¹ s⁻¹
4 | B4 | 1.41 nM | 0.000151 s⁻¹ | 107000 M⁻¹ s⁻¹
5 | B5 | 0.578 nM | 0.000144 s⁻¹ | 249000 M⁻¹ s⁻¹
6 | B6 | 0.837 nM | 0.000144 s⁻¹ | 172000 M⁻¹ s⁻¹
7 | B7 | 0.416 nM | 0.000128 s⁻¹ | 308000 M⁻¹ s⁻¹
8 | B8 | 0.502 nM | 0.000203 s⁻¹ | 404000 M⁻¹ s⁻¹
9 | B9 | 3.81 nM | 0.00126 s⁻¹ | 331000 M⁻¹ s⁻¹
10 | B10 | 0.591 nM | 0.000163 s⁻¹ | 276000 M⁻¹ s⁻¹
11 | B11 | 8.28 nM | 0.00369 s⁻¹ | 446000 M⁻¹ s⁻¹
12 | B12 | 9.11 nM | 0.00378 s⁻¹ | 415000 M⁻¹ s⁻¹
13 | B13 | 9.68 nM | 0.00408 s⁻¹ | 422000 M⁻¹ s⁻¹
14 | B14 | 6.4 nM | 0.00309 s⁻¹ | 484000 M⁻¹ s⁻¹
15 | B15 | 3.79 nM | 0.00176 s⁻¹ | 465000 M⁻¹ s⁻¹
16 | B16 | 3.79 nM | 0.00175 s⁻¹ | 462000 M⁻¹ s⁻¹
17 | B17 | 0.577 nM | 0.000662 s⁻¹ | 1.15e+06 M⁻¹ s⁻¹
18 | B18 | 1.39 nM | 0.000885 s⁻¹ | 636000 M⁻¹ s⁻¹

Row | Binder | Kd | koff | kon
19 | B19 | 0.665 nM | 0.00078 s⁻¹ | 1.17e+06 M⁻¹ s⁻¹
20 | B20 | 0.651 nM | 0.000719 s⁻¹ | 1.1e+06 M⁻¹ s⁻¹
21 | B21 | 0.928 nM | 0.000787 s⁻¹ | 848000 M⁻¹ s⁻¹
22 | B22 | 0.69 nM | 0.00057 s⁻¹ | 826000 M⁻¹ s⁻¹
23 | B23 | 1.19 nM | 0.000817 s⁻¹ | 685000 M⁻¹ s⁻¹
24 | B24 | 0.119 nM | 0.000116 s⁻¹ | 982000 M⁻¹ s⁻¹
25 | B25 | 0.211 nM | 0.000213 s⁻¹ | 1.01e+06 M⁻¹ s⁻¹
26 | B26 | 0.13 nM | 0.000143 s⁻¹ | 1.1e+06 M⁻¹ s⁻¹
27 | B27 | 0.078 nM | 0.000214 s⁻¹ | 2.72e+06 M⁻¹ s⁻¹
28 | B28 | 0.206 nM | 0.00031 s⁻¹ | 1.5e+06 M⁻¹ s⁻¹
29 | B29 | 0.419 nM | 0.000442 s⁻¹ | 1.05e+06 M⁻¹ s⁻¹
30 | B30 | 0.349 nM | 0.000379 s⁻¹ | 1.09e+06 M⁻¹ s⁻¹
31 | B31 | 0.275 nM | 0.000308 s⁻¹ | 1.12e+06 M⁻¹ s⁻¹
32 | B32 | 0.51 nM | 0.000391 s⁻¹ | 767000 M⁻¹ s⁻¹
33 | B33 | 0.136 nM | 0.000154 s⁻¹ | 1.13e+06 M⁻¹ s⁻¹
34 | B34 | 0.157 nM | 0.000147 s⁻¹ | 937000 M⁻¹ s⁻¹
35 | B35 | 0.231 nM | 0.000223 s⁻¹ | 965000 M⁻¹ s⁻¹
